# Measurements: paper PMC10265101 (2023)
# B1: recombinant Nb-BiTE (PD-L1/CD3ε Nb-BiTE) (bispecific antibody)
# chain: HVQLVESGGGLVQPGGSLRLSCAASGFTFSSKAMSWVRQAPGKGLDWVSTINSGGGNTYYSDSVKGRFTISRDNAKNTLYLQLNSLKTEDTAMYYCSRCSDIYCGGQYTYRGQGTLVTVSSGGGGSGGGGSGGGGSEVQLVESGGGLVQPGGSLRLSCVASGFTFSSIGMSWVRQAPGKGLEWVSGLNPVGSHTGYADSVKGRFTISRDNAKNTLHLQLNSLKTEDTAMYYCQRGYTCSGDLCERGQGTQVTVSSGGGGSGGGGSGGGGSHVQLVESGGGSVQAGGSLRLSCTVSGVIFKNEYMGWFRQAPGKEREGVAAASPGGTITYYGDSVKGRFTISRDNAKNTVYLQMNRLKPEDTAMYYCALDPSTTSWSIIRHGPSLWRYSGRGTQVTVSS
# Key:
# CD3ε = experiment: SPR
# [1] = molecular target: T1, recombinant PD-L1 protein (#10084-HNAH, Sino Biological) (UniProt Q9NZQ7 19-290); experiment: SPR; heterogeneous ligand fit, KD1
# T1 sequence (Q9NZQ7 19-290): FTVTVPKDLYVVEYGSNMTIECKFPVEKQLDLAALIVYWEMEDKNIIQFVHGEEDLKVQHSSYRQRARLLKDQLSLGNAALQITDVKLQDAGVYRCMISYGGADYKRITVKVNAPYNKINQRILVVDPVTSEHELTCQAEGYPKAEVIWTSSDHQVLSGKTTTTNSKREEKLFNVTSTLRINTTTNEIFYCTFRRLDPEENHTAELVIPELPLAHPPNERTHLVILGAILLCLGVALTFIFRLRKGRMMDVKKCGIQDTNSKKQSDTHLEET
# [2] = molecular target: T1, recombinant PD-L1 protein (#10084-HNAH, …); experiment: SPR; heterogeneous ligand fit, KD2 (second site)
binder,measurement,setting,value
B1,Kd,CD3ε,2.48 nM
same,Kd,[1],9.86 nM
same,Kd,[2],0.00205 nM
